“Also recorded” adds a separate entry of the source. Like-named read-outs stand apart in the source and are kept apart here.
B1: ZC3HAV1: host protein, UniProt Q7Z2W4 (protein, UniProt Q7Z2W4 2-902, looked up)
Zinc finger CCCH-type …: ADPEVCCFITKILCAHGGRMALDALLQEIALSEPQLCEVLQVAGPDRFVVLETGGEAGITRSVVATTRARVCRRKYCQRPCDNLHLCKLNLLGRCNYSQSERNLCKYSHEVLSEENFKVLKNHELSGLNKEELAVLLLQSDPFFMPEICKSYKGEGRQQICNQQPPCSRLHICDHFTRGNCRFPNCLRSHNLMDRKVLAIMREHGLNPDVVQNIQDICNSKHMQKNPPGPRAPSSHRRNMAYRARSKSRDRFFQGSQEFLASASASAERSCTPSPDQISHRASLEDAPVDDLTRKFTYLGSQDRARPPSGSSKATDLGGTSQAGTSQRFLENGSQEDLLHGNPGSTYLASNSTSAPNWKSLTSWTNDQGARRKTVFSPTLPAARSSLGSLQTPEAVTTRKGTGLLSSDYRIINGKSGTQDIQPGPLFNNNADGVATDITSTRSLNYKSTSSGHREISSPRIQDAGPASRDVQATGRIADDADPRVALVNDSLSDVTSTTSSRVDDHDSEEICLDHLCKGCPLNGSCSKVHFHLPYRWQMLIGKTWTDFEHMETIEKGYCNPGIHLCSVGSYTINFRVMSCDSFPIRRLSTPSSVTKPANSVFTTKWIWYWKNESGTWIQYGEEKDKRKNSNVDSSYLESLYQSCPRGVVPFQAGSRNYELSFQGMIQTNIASKTQKDVIRRPTFVPQWYVQQMKRGPDHQPAKTSSVSLTATFRPQEDFCFLSSKKYKLSEIHHLHPEYVRVSEHFKASMKNFKIEKIKKIENSELLDKFTWKKSQMKEEGKLLFYATSRAYVESICSNNFDSFLHETHENKYGKGIYFAKDAIYSHKNCPYDAKNVVMFVAQVLVGKFTEGNITYTSPPPQFDSCVDTRSNPSVFVIFQKDQVYPQYVIEYTEDKACVIS
B2: CELF1: host protein, UniProt Q92879 (protein, UniProt Q92879 1-486, looked up)
CUGBP Elav-like family member …: MNGTLDHPDQPDLDAIKMFVGQVPRTWSEKDLRELFEQYGAVYEINVLRDRSQNPPQSKGCCFVTFYTRKAALEAQNALHNMKVLPGMHHPIQMKPADSEKNNAVEDRKLFIGMISKKCTENDIRVMFSSFGQIEECRILRGPDGLSRGCAFVTFTTRAMAQTAIKAMHQAQTMEGCSSPMVVKFADTQKDKEQKRMAQQLQQQMQQISAASVWGNLAGLNTLGPQYLALYLQLLQQTASSGNLNTLSSLHPMGGLNAMQLQNLAALAAAASAAQNTPSGTNALTTSSSPLSVLTSSGSSPSSSSSNSVNPIASLGALQTLAGATAGLNVGSLAGMAALNGGLGSSGLSNGTGSTMEALTQAYSGIQQYAAAALPTLYNQNLLTQQSIGAAGSQKEGPEGANLFIYHLPQEFGDQDLLQMFMPFGNVVSAKVFIDKQTNLSKCFGFVSYDNPVSAQAAIQSMNGFQIGMKRLKVQLKRSKNDSKPY

What was measured:
[1] = tested on: SARS-CoV-2; type: cell-based; details: for change in viral RNA levels (gRNA, N sgRNA) after siRNA depletion: Calu-3 cells, 50 nM siRNA, RT-qPCR, relative to siNC
[2] = tested on: gRNA of HCoV-OC43; type: binding; details: for target (spectral count, OC43 Probe I RNP capture) / background (spectral count, no-probe control): type n_48_v: 48 hours post-infection; for target (spectral count, OC43 Probe I RNP capture): infected cells, unweighted spectral count; for background (spectral count, no-probe control): no-probe control on infected cells
[3] = tested on: SARS-CoV-2 gRNA; type: binding
[4] = tested on: SARS-CoV-2 gRNA and sgRNAs; type: binding; details: for target (unweighted spectral count in RNP capture): Probe II capture, LC-MS/MS LFQ; for background (unweighted spectral count in control): no-probe control pull-down, used as background for Probe II
[5] = tested on: HCoV-OC43 gRNA and sgRNA; type: binding; details: for target (unweighted spectral count, OC43 Probe II capture) / target (spectral count) / background (spectral count): 36 hpi; for target (unweighted spectral count, OC43 Probe II capture): type n_36_v, FDR<10%; for target (unweighted spectral count, OC43 Probe II capture) / target (unweighted spectral count): tested against no-probe control; for target (unweighted spectral count): OC43 Probe II, infected cells; for target (unweighted spectral count, OC43 Probe II) / background (unweighted spectral count, no-probe control): type n_48_v, 48 hpi; for target (unweighted spectral count, OC43 Probe II): OC43 Probe II capture on infected cells; for background (unweighted spectral count, no-probe control): no-probe control on infected cells; for target (spectral count) / background (spectral count): type s_36_m, Probe II; for target (spectral count): HCoV-OC43-infected HCT-8 cells; for background (spectral count): uninfected-probe control

Molecule	antiviral or proviral role of the host protein indicated by knockdown [1]	change in viral RNA levels (gRNA, N sgRNA) after siRNA depletion [1]	target (spectral count, OC43 Probe I RNP capture) [2]	background (spectral count, no-probe control) [2]	enrichment in SARS-CoV-2 Probe I RNP capture [3]	target (unweighted spectral count of the protein in the RNP capture) ([3]; […], LC-MS/MS, Probe I sample (first 199 lines of Table 2))	enrichment in SARS-CoV-2 Probe II RNP capture [4]	target (unweighted spectral count in RNP capture) [4]	background (unweighted spectral count in control) [4]	target (unweighted spectral count, OC43 Probe II capture) [5]	target (unweighted spectral count) ([5]; 12 hpi (type n_12_v))	target (unweighted spectral count) ([5]; 24 hpi (type n_24_v))	target (unweighted spectral count, OC43 Probe II) [5]	background (unweighted spectral count, no-probe control) [5]	target (spectral count) [5]	background (spectral count) [5]	target (spectral count) ([2]; type g_36_m, HCoV-OC43-infected HCT-8 cells, 36 hpi, Probe I)	background (spectral count) ([2]; type g_36_m, uninfected-probe control, 36 hpi, Probe I)
B1	may act as antiviral factors	increased viral RNAs	17	1	enriched; also recorded: found in the SARS-CoV-2 experiments	31	enriched; also recorded: found in the SARS-CoV-2 experiments	48	1	18	8	13	22	1	18	1	–	–
B2	–	increased viral RNAs; also recorded: only modest	16	1	found in the SARS-CoV-2 experiments	–	found in the SARS-CoV-2 experiments	25	1	14	–	6	14	1	14	1	15	1

Source: US20230407373A1 (priority 2020, published 2023)
